According to patent US12448434B2, “Antibodies specifically recognizing Pseudomonas PcrV and uses thereof” (priority 2019, dated 2025):
Substitutions are numbered along the chain they refer to.

B1: 7B1: optimized anti-PcrV mAb clone; VH SEQ ID NO: 62, VL SEQ ID NO: 67 (antibody, V domains shown)
VH: EVQLLESGGGLVQPGGSLRLSCTASGFTFSDNYMSWVRQAPGKGLDWVSVISESGGSTNYADSVKGRFSTSRDNSKSTLYLDMNSLRAEDTAIYYCAKGRFSTLSSHFFRAVYGMDVWGQGTAVTVSS
VL: DIQLTQSPSSLSASVGDRVTITCRASQGISSYLAWYQQKPGKAPKLLIYAASTLQSGVPSRFSGSGSGTDFTLTISSLQPEDFATYYCQQLSSYPLTFGGGTKVEIK
B2: 7C1: optimized anti-PcrV mAb clone; VH SEQ ID NO: 52, VL SEQ ID NO: 65 (antibody, V domains shown)
VH: B1 VH with Y33H, V50G, L104S, F109Y
VL: B1 VL with T97S
B3: 8C1: optimized anti-PcrV mAb clone; VH SEQ ID NO: 51, VL SEQ ID NO: 67 (antibody, V domains shown)
VH: B1 VH with Y33H, V50G, L104N, S106A
VL: B1 VL

Columns and labels:
[1] = tested on: P. aeruginosa (PA103 strain); assay: Prophylactic mouse acute pneumonia model, survival; assay type: in vivo, BALB/c mice; settings: i.p. 24 h before infection, 1 or 10 mg/kg; 1*LD90 or 2*LD90; 7 days
Protocol: The candidate anti-PcrV antibodies were assayed for the ability to improve survival in a mouse acute pneumonia model. In a prophylactic model, 7-8 week old BALB/c mice (Vital River Laboratory) were administered the candidate antibodies or PBS intraperitoneally (i.p.) 24 hr before infection, at doses of 1, 5, 10 or 25 mg/kg mouse weight. […] Mouse survival was recorded for up to 7 days post-infection.
In a prophylactic model, 7-8 week old BALB/c mice (Vital River Laboratory) were administered with antibodies intraperitoneally (i.p.) 24 h before infection, at doses of 1 or 10 mg/kg mouse weight. […] Mouse survival was recorded for up to 7 days post-infection. The results were represented as Kaplan-Meier survival curves.

[2] = tested on: P. aeruginosa (PA103 strain); assay: Mouse intraperitoneal infection model, antibody alone or combined with antibiotics, survival; assay type: in vivo, BALB/c mice; settings: antibody 5 mg/kg i.p. 24h before infection; 3*LD90; 5 days; FIG. 12A
Protocol: The ability of the optimized anti-PcrV antibody 7B1 or 8C1 to improve survival in mouse intraperitoneal infection model was evaluated in comparison to antibiotics Meropenem, Tobramycin, Ciprofloxacin; and also in comparison to combination treatment of 7B1 or 8C1 with either antibiotic. HIV-10E8 was used as negative control.
In a prophylactic model for anti-PcrV testing, 7-8 week old BALB/c mice (Vital River Laboratory) were intraperitoneally injected with antibody 24h before infection or with antibiotic 1h post infection. Specifically, the mice were administered with either optimized anti-PcrV antibody clone 7B1 or 8C1 (at 5 mg/kg), Meropenem (at 3 mg/kg), Tobramycin (at 10 mg/kg), Ciprofloxacin (at 30 mg/kg), or a combination of 7B1 or 8C1 with one of the antibiotics. To induce intraperitoneal infection, the BALB/c mice were intraperitoneally inoculated with P. aeruginosa (PA103 strain) suspended in a 300 μl inoculum at triple the lethal dose (3*LD90=7×10^5 CFU). Mouse survival was recorded for up to 5 days post-infection.

[3] = tested on: P. aeruginosa (PA103 strain); assay: Therapeutic mouse acute pneumonia model, survival; assay type: in vivo, BALB/c mice; settings: i.v. 1 h post-infection, 1 mg/kg or 10 mg/kg; 1*LD90; 6 days
Protocol: In a therapeutic model, to induce acute pneumonia, 7-8 week old BALB/c mice (Vital River Laboratory) were intranasally inoculated with P. aeruginosa (PA103 strain) suspended in a 40 μl inoculum at a lethal dose (1*LD90=8×10^5 CFU). Antibodies or PBS were administered intravenously (i.v.) at 1 h post-infection, at a dose of 1 mg/kg or 10 mg/kg mouse weight. Mouse survival was recorded for up to 6 days post-infection.

[4] = tested on: mutated PcrV; assay: Epitope mapping: ELISA binding to alanine-scanning mutated PcrV; parameters: species or system P. aeruginosa
Protocol: Using the discovery studio software, the predicted binding sites on PcrV for 7B1 and the optimized antibodies were identified, and the amino acid residues within the binding sites and in proximity to the binding sites were selected and subjected to alanine scanning. Subsequently, PcrV proteins carrying these selected mutations were expressed. The binding affinity of 7B1-IgG1 for each mutated PcrV protein was analyzed using ELISA. FIGS. 14A-14D show the ELISA binding curves of the antibodies for mutated PcrV, where mutation positions were according to sequence of SEQ ID NO: 71. As used herein, PcrV represents a His-tagged wild-type P. aeruginosa PcrV (PcrV-6His). Mutations at various positions of the amino acid sequence of the wild type PcrV were generated using alanine scanning as described above.

[5] = tested on: P. aeruginosa strains O1-52/66, O16-177/81, and O6-57/66; assay: RBC lysis inhibition assay, various strains (average); assay type: cell-based, Pseudomonas aeruginosa; settings: FIGS. 5A-5C
Protocol: Monoclonal scFv antibodies were selected and assessed for biological activity by RBC lysis assay. Briefly, red blood cells (RBCs) were prepared from fresh whole human or rabbit blood by centrifugation, supplemented with EDTA and rinsed with multiple phosphate-buffered saline (PBS) washes. Washed RBCs (2.5% [vol/vol] final) in Dulbecco's modified Eagle's medium (DMEM) plus 10% fetal bovine serum (FBS) (Gibco) and purified anti-PcrV antibodies diluted in PBS were combined into wells of a round-bottom 96-well plate. Strain 57/66(O6) P. aeruginosa was grown to mid-log phase in 2× YT medium (Oxford), harvested by centrifugation, and resuspended in DMEM-fetal bovine serum (FBS) at an optical density at 600 nm (OD600) of 0.15. Ten microliters of bacterial suspension was added to the RBC-antibody mixture, mixed by agitation, and incubated for 3 hours at 37° C. and 5% CO2. The plates were briefly centrifuged (1000 rpm, 1 min) to pellet the intact RBCs, the supernatants transferred to a flat-bottom 96-well plate, and the OD405 was measured to detect any lysis, from which the relative amount of lysis inhibition was calculated and plotted. IC50 values for the antibodies were also determined.
The optimized anti-PcrV mAb clones 7C1, 8C1, and 7B1 were further analyzed for their abilities to inhibit red blood cell lysis by various strains of P. aeruginosa, namely strains O1-52/66, O16-177/81, and O6-57/66, as compared to the parental 13-42 mAb and the reference antibody V2L2-MD. RBC lysis inhibition assay was performed as described in Example 1.

[6] = tested on: P. aeruginosa (O6-57/66 strain); assay: Prophylactic mouse intraperitoneal infection model, survival; assay type: in vivo, BALB/c mice; settings: 5 mg/kg antibody dose i.p. 24 h before infection; 3*LD90; 5 days
Protocol: The ability of the optimized anti-PcrV antibodies 7C1, 7B1 and 8C1 to improve survival in a mouse intraperitoneal infection model was evaluated in comparison to parental 13-42 mAb. HIV-10E8 was used as negative control. The mouse intraperitoneal infection model was generated as described previously (See Warrener et al., 2014, Antimicrob. Agents Chemother., 58, 4384-4391).
In a prophylactic model, 7-8 week old BALB/c mice (Vital River Laboratory) were administered antibodies by intraperitoneal (i.p.) injection 24 h before infection, at doses of 5 or 25 mg/kg mouse weight. To induce intraperitoneal infection, the BALB/c mice were intraperitoneally inoculated with P. aeruginosa (O6-57/66 strain) suspended in a 300 μl inoculum at triple the lethal dose (3*LD90=7×10^5 CFU). Mouse survival was recorded for up to 5 days post-infection.

Molecule	survival improvement relative to parental 13-42 mAb [1]	survival improvement of antibody alone relative to Meropenem (3 mg/kg) [2]	survival improvement relative to V2L2-MD [3]	effect of PcrV mutation at position D165 on binding ([4]; FIG. 14C)	effect of PcrV mutation at position Q160 on binding ([4]; FIG. 14C)	effect of PcrV mutation at position D170 on binding ([4]; FIG. 14D)	effect of PcrV mutation at position D173 on binding ([4]; FIG. 14D)	effect of PcrV mutation at position S202 on binding ([4]; FIG. 14D)	effect of PcrV mutation at position T175 on binding ([4]; FIG. 14D)	efficacy in inhibiting RBC lysis by strains O1-52/66, O16-177/81, O6-57/66 relative to V2L2-MD or parental 13-42 mAb [5]	survival improvement relative to parental 13-42 mAb [6]
B1	comparable or better survival improvements	better or comparable survival improvement	survival improvement comparable to that of V2L2-MD	affected binding	significantly affected binding	affected binding	affected binding	affected binding	affected binding	better efficacy in inhibiting RBC lysis	comparable or better survival improvement
B2	comparable or better survival improvements		survival improvement comparable to that of V2L2-MD							better efficacy in inhibiting RBC lysis	comparable or better survival improvement
B3			survival improvement comparable to that of V2L2-MD							better efficacy in inhibiting RBC lysis	
